Measurements from article PMC8058080.

Target: Acaryochloris marina photosystem I (PSI) monomer, 11 subunits (PsaA, PsaB, PsaC, PsaD, PsaE, PsaF, PsaJ, PsaK, PsaL, PsaM, Psa27) (Acaryochloris marina) (UniProt B0C474)
Assay: cryo-EM structure; PSI trimer purified from A. marina; 50 mM MES-NaOH pH 6.5, 5 mM CaCl2, 10 mM MgCl2, 0.002% LMNG; 2.58 Å with C3 symmetrization, 2.97 Å without

**Q.** How did the stoichiometry N turn out when “Acaryochloris marina photosystem I (PSI) monomer, 11 subunits (PsaA, PsaB, PsaC, PsaD, PsaE, PsaF, PsaJ, PsaK, PsaL, PsaM, Psa27) (from UniProt B0C474 1-753; B0C475 1-736; B0CB42 1-81; B0C8F1 1-139; B0C5D5 1-89; B0C7S7 1-167; B0C7S6 1-51; B0C7S4 1-153; B0C4H4 1-31) (complex)” was run?
**A.** 3
